The target of this experiment is Bbil-TX, basic PLA2 from Bothriopsis bilineata snake venom (Bothriopsis bilineata).

“crotapotin isoform F3 from Crotalus durissus cascavella rattlesnake venom (natural protein)”: the inhibition of the PLA2 activity of Bbil-TX (substrate 4-nitro-3-octanoyloxy-benzoic acid) after preincubation of enzyme and inhibitor for 30 min at 37°C came to 50%.

Values taken from PMC3591176.
